The values that follow come from paper PMC5003112 (Nature chemical biology, 2016).

The data set “crystal structure” concerns the molecule itself. The data set is described as follows: crystal structure.
The data set “SEC” deals with the molecule itself. Briefly: SEC.

B1: Escherichia coli NudC (crystallization construct) (enzyme, E. coli)
chain: MDRIIEKLDHGWWVVSHEQKLWLPKGELPYGEAANFDLVGQRALQIGEWQGEPVWLVQQQRRHDMGSVRQVIDLDVGLFQLAGRGVQLAEFYRSHKYCGYCGHEMYPSKTEWAMLCSHCRERYYPQIAPCIIVAIRRDDSILLAQHTRHRNGVHTVLAGFVEVGETLEQAVAREVMEESGIKVKNLRYVTSQPWPFPQSLMTAFMAEYDSGDIVIDPKELLEANWYRYDDLPLLPPPGTVARRLIEDTVAMCRAEYE
As usually defined, the stoichiometry N is the number of molecules, sites or subunits per partner or assembly. B1: the “stoichiometry N” value in the data set “crystal structure” came to 2.

B2: E. coli NudC Y188A (enzyme, E. coli K-12, UniProt P32664 1-257, looked up)
chain: MDRIIEKLDHGWWVVSHEQKLWLPKGELPYGEAANFDLVGQRALQIGEWQGEPVWLVQQQRRHDMGSVRQVIDLDVGLFQLAGRGVQLAEFYRSHKYCGYCGHEMYPSKTEWAMLCSHCRERYYPQIAPCIIVAIRRDDSILLAQHTRHRNGVHTVLAGFVEVGETLEQAVAREVMEESGIKVKNLRAVTSQPWPFPQSLMTAFMAEYDSGDIVIDPKELLEANWYRYDDLPLLPPPGTVARRLIEDTVAMCRAEYE
As for B2, the binding result in the data set “SEC” was “binds”.

B3: E. coli NudC Y188Q (enzyme, E. coli K-12, UniProt P32664 1-257, looked up)
chain: MDRIIEKLDHGWWVVSHEQKLWLPKGELPYGEAANFDLVGQRALQIGEWQGEPVWLVQQQRRHDMGSVRQVIDLDVGLFQLAGRGVQLAEFYRSHKYCGYCGHEMYPSKTEWAMLCSHCRERYYPQIAPCIIVAIRRDDSILLAQHTRHRNGVHTVLAGFVEVGETLEQAVAREVMEESGIKVKNLRQVTSQPWPFPQSLMTAFMAEYDSGDIVIDPKELLEANWYRYDDLPLLPPPGTVARRLIEDTVAMCRAEYE
On to B3, for which the binding result in the data set “SEC” is reported as “binds”.
